According to the supplement of paper PMC9112550, “Optimization of the antimicrobial peptide Bac7 by deep mutational scanning” (BMC Biology, 2022):

Tested on: Escherichia coli TOP10
Assay: shrunken log2 fold change of peptide-encoding DNA abundance (4.5 h post-induction vs induction); higher = less antimicrobial activity (less host growth inhibition)
Details: time post-induction: 4.5 h; library: site-saturation at positions 5, 18, 19, 20
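Further: peptides expressed intracellularly from a pBAD plasmid library in pooled LB shake-flask culture, induced with 0.3% L-arabinose, DNA abundance read by NGS, three biological replicates, DESeq2 with apeglm shrinkage.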

## RRIRARPPRLPRPRPRPIVCPRP
  shrunken log2 fold change: 0.00943

## RRIRGRPPRLPRPRPRPMNSPRP
  shrunken log2 fold change: 0.0334

## RRIRARPPRLPRPRPRPLWGPRP
  shrunken log2 fold change: 0.308

## RRIRHRPPRLPRPRPRPVFVPRP
  shrunken log2 fold change: -0.182

## RRIRYRPPRLPRPRPRPRNDPRP
  shrunken log2 fold change: -0.205

## RRIRVRPPRLPRPRPRPDFEPRP
  shrunken log2 fold change: 0.0704

## RRIRFRPPRLPRPRPRPKADPRP
  shrunken log2 fold change: -0.0989

## RRIRDRPPRLPRPRPRPFPWPRP
  shrunken log2 fold change: -0.192

## RRIRFRPPRLPRPRPRPNYAPRP
  shrunken log2 fold change: -0.127

## RRIRKRPPRLPRPRPRPNSEPRP
  shrunken log2 fold change: 2.18

## RRIRSRPPRLPRPRPRPWRQPRP
  shrunken log2 fold change: 0.11

## RRIRIRPPRLPRPRPRPENPPRP
  shrunken log2 fold change: -0.695

## RRIRPRPPRLPRPRPRPGRQPRP
  shrunken log2 fold change: 0.742

## RRIRVRPPRLPRPRPRPAMHPRP
  shrunken log2 fold change: 0.0999

## RRIRFRPPRLPRPRPRPCEDPRP
  shrunken log2 fold change: -0.13

## RRIRRRPPRLPRPRPRPHFKPRP
  shrunken log2 fold change: -0.0168

## RRIRHRPPRLPRPRPRPMSNPRP
  shrunken log2 fold change: 0.00049

## RRIRMRPPRLPRPRPRPGRIPRP
  shrunken log2 fold change: 0.0372

## RRIRLRPPRLPRPRPRPLIHPRP
  shrunken log2 fold change: -0.542

## RRIRIRPPRLPRPRPRPLCDPRP
  shrunken log2 fold change: -0.655

## RRIRMRPPRLPRPRPRPETYPRP
  shrunken log2 fold change: 0.451

## RRIRIRPPRLPRPRPRPTIGPRP
  shrunken log2 fold change: -0.396

## RRIRVRPPRLPRPRPRPAHFPRP
  shrunken log2 fold change: 0.31

## RRIRERPPRLPRPRPRPVEDPRP
  shrunken log2 fold change: 0.0178

## RRIRYRPPRLPRPRPRPISEPRP
  shrunken log2 fold change: -0.0398

## RRIRDRPPRLPRPRPRPGSAPRP
  shrunken log2 fold change: 0.238

## RRIRGRPPRLPRPRPRPLIAPRP
  shrunken log2 fold change: 1.27

## RRIRCRPPRLPRPRPRPPPHPRP
  shrunken log2 fold change: 1.3

## RRIRIRPPRLPRPRPRPGTHPRP
  shrunken log2 fold change: -0.431

## RRIRFRPPRLPRPRPRPDMVPRP
  shrunken log2 fold change: -0.499

## RRIRARPPRLPRPRPRPVETPRP
  shrunken log2 fold change: 0.759

## RRIRPRPPRLPRPRPRPACTPRP
  shrunken log2 fold change: 0.163

## RRIRHRPPRLPRPRPRPPCTPRP
  shrunken log2 fold change: 0.0262

## RRIRTRPPRLPRPRPRPEWEPRP
  shrunken log2 fold change: 0.0583

## RRIRQRPPRLPRPRPRPRGCPRP
  shrunken log2 fold change: 0.199

## RRIRARPPRLPRPRPRPPIHPRP
  shrunken log2 fold change: -0.11

## RRIRGRPPRLPRPRPRPQYKPRP
  shrunken log2 fold change: -0.136

## RRIRNRPPRLPRPRPRPSMLPRP
  shrunken log2 fold change: -0.145

## RRIRARPPRLPRPRPRPQGVPRP
  shrunken log2 fold change: -0.128

## RRIRHRPPRLPRPRPRPKIAPRP
  shrunken log2 fold change: 0.00548

## RRIRGRPPRLPRPRPRPGMFPRP
  shrunken log2 fold change: 0.474

## RRIRSRPPRLPRPRPRPVAGPRP
  shrunken log2 fold change: 0.0927

## RRIRRRPPRLPRPRPRPLWLPRP
  shrunken log2 fold change: -0.107

## RRIRCRPPRLPRPRPRPYGWPRP
  shrunken log2 fold change: -0.27

## RRIRYRPPRLPRPRPRPDCSPRP
  shrunken log2 fold change: -0.315

## RRIRHRPPRLPRPRPRPLSNPRP
  shrunken log2 fold change: -0.174

## RRIRSRPPRLPRPRPRPNARPRP
  shrunken log2 fold change: -0.119

## RRIRVRPPRLPRPRPRPRAFPRP
  shrunken log2 fold change: 0.294

## RRIRERPPRLPRPRPRPKFMPRP
  shrunken log2 fold change: -0.293

## RRIRSRPPRLPRPRPRPGTKPRP
  shrunken log2 fold change: 0.108

## RRIRVRPPRLPRPRPRPDTLPRP
  shrunken log2 fold change: -0.712

## RRIRHRPPRLPRPRPRPHQTPRP
  shrunken log2 fold change: -0.0667

## RRIRQRPPRLPRPRPRPDQTPRP
  shrunken log2 fold change: -0.0116

## RRIRTRPPRLPRPRPRPPQRPRP
  shrunken log2 fold change: 0.577

## RRIRARPPRLPRPRPRPALHPRP
  shrunken log2 fold change: 0.651

## RRIRLRPPRLPRPRPRPNHLPRP
  shrunken log2 fold change: 0.0169

## RRIRERPPRLPRPRPRPVRQPRP
  shrunken log2 fold change: 0.412

## RRIRQRPPRLPRPRPRPEYEPRP
  shrunken log2 fold change: -0.157

## RRIRRRPPRLPRPRPRPQMRPRP
  shrunken log2 fold change: 1.05

## RRIRDRPPRLPRPRPRPGWNPRP
  shrunken log2 fold change: 0.69

## RRIRTRPPRLPRPRPRPTLVPRP
  shrunken log2 fold change: 0.0196

## RRIRHRPPRLPRPRPRPRITPRP
  shrunken log2 fold change: -0.0394

## RRIRNRPPRLPRPRPRPCAGPRP
  shrunken log2 fold change: -0.123

## RRIRWRPPRLPRPRPRPKHHPRP
  shrunken log2 fold change: -0.208

## RRIRTRPPRLPRPRPRPDLAPRP
  shrunken log2 fold change: 0.132

## RRIRRRPPRLPRPRPRPVYPPRP
  shrunken log2 fold change: -0.284

## RRIRERPPRLPRPRPRPLPTPRP
  shrunken log2 fold change: -0.0242

## RRIRPRPPRLPRPRPRPYHHPRP
  shrunken log2 fold change: -0.655

## RRIRCRPPRLPRPRPRPGIMPRP
  shrunken log2 fold change: -0.594

## RRIRMRPPRLPRPRPRPEIWPRP
  shrunken log2 fold change: 1.2

## RRIRLRPPRLPRPRPRPGMFPRP
  shrunken log2 fold change: -0.322

## RRIRMRPPRLPRPRPRPCIMPRP
  shrunken log2 fold change: -0.533

## RRIRERPPRLPRPRPRPQYCPRP
  shrunken log2 fold change: -0.0302

## RRIRCRPPRLPRPRPRPVLEPRP
  shrunken log2 fold change: -0.249

## RRIRSRPPRLPRPRPRPGDLPRP
  shrunken log2 fold change: -0.091

## RRIRNRPPRLPRPRPRPRRHPRP
  shrunken log2 fold change: 0.0212

## RRIRPRPPRLPRPRPRPECDPRP
  shrunken log2 fold change: 0.392

## RRIRDRPPRLPRPRPRPMSVPRP
  shrunken log2 fold change: -0.00308

## RRIRKRPPRLPRPRPRPHQIPRP
  shrunken log2 fold change: 0.0638

## RRIRARPPRLPRPRPRPIQPPRP
  shrunken log2 fold change: -0.0587

## RRIRSRPPRLPRPRPRPCTMPRP
  shrunken log2 fold change: -0.154

## RRIRYRPPRLPRPRPRPSVGPRP
  shrunken log2 fold change: -0.124

## RRIRHRPPRLPRPRPRPNSMPRP
  shrunken log2 fold change: -0.401

## RRIRCRPPRLPRPRPRPERIPRP
  shrunken log2 fold change: 0.164

## RRIRLRPPRLPRPRPRPEYLPRP
  shrunken log2 fold change: -0.0639

## RRIRFRPPRLPRPRPRPLMEPRP
  shrunken log2 fold change: -0.00741

## RRIRARPPRLPRPRPRPHEMPRP
  shrunken log2 fold change: 0.588

## RRIRYRPPRLPRPRPRPEPRPRP
  shrunken log2 fold change: 0.408

## RRIRNRPPRLPRPRPRPDLDPRP
  shrunken log2 fold change: 0.0497

## RRIRKRPPRLPRPRPRPRTGPRP
  shrunken log2 fold change: 0.376

## RRIRCRPPRLPRPRPRPWEGPRP
  shrunken log2 fold change: -0.00146

## RRIRYRPPRLPRPRPRPTQGPRP
  shrunken log2 fold change: 0.0351

## RRIRCRPPRLPRPRPRPCVNPRP
  shrunken log2 fold change: -0.106

## RRIRLRPPRLPRPRPRPLPRPRP
  shrunken log2 fold change: 0.475

## RRIRIRPPRLPRPRPRPNGIPRP
  shrunken log2 fold change: -0.337

## RRIRFRPPRLPRPRPRPRILPRP
  shrunken log2 fold change: 0.0716

## RRIRPRPPRLPRPRPRPRECPRP
  shrunken log2 fold change: 0.378

## RRIRTRPPRLPRPRPRPCKMPRP
  shrunken log2 fold change: -0.47

## RRIRIRPPRLPRPRPRPWKEPRP
  shrunken log2 fold change: -0.12

## RRIRSRPPRLPRPRPRPDKPPRP
  shrunken log2 fold change: -0.266

## RRIRSRPPRLPRPRPRPPSDPRP
  shrunken log2 fold change: 0.385

## RRIRPRPPRLPRPRPRPNKAPRP
  shrunken log2 fold change: 0.0279

## RRIRPRPPRLPRPRPRPGPPPRP
  shrunken log2 fold change: 0.366

## RRIRCRPPRLPRPRPRPHCIPRP
  shrunken log2 fold change: -0.468

## RRIRHRPPRLPRPRPRPITVPRP
  shrunken log2 fold change: -0.0184

## RRIRIRPPRLPRPRPRPNLIPRP
  shrunken log2 fold change: -0.654

## RRIRHRPPRLPRPRPRPTMHPRP
  shrunken log2 fold change: -0.0232

## RRIRSRPPRLPRPRPRPCPVPRP
  shrunken log2 fold change: -0.0785

## RRIRGRPPRLPRPRPRPEREPRP
  shrunken log2 fold change: 1.1

## RRIRGRPPRLPRPRPRPYSMPRP
  shrunken log2 fold change: 0.00971

## RRIRHRPPRLPRPRPRPKRIPRP
  shrunken log2 fold change: -0.0337

## RRIRIRPPRLPRPRPRPGDAPRP
  shrunken log2 fold change: 0.0793

## RRIRARPPRLPRPRPRPQIVPRP
  shrunken log2 fold change: -0.0292

## RRIRGRPPRLPRPRPRPHKWPRP
  shrunken log2 fold change: 0.183

## RRIRNRPPRLPRPRPRPRVWPRP
  shrunken log2 fold change: 3.4

## RRIRTRPPRLPRPRPRPCEIPRP
  shrunken log2 fold change: 0.0393

## RRIRKRPPRLPRPRPRPYTEPRP
  shrunken log2 fold change: -0.295

## RRIRRRPPRLPRPRPRPDMMPRP
  shrunken log2 fold change: -0.137

## RRIRSRPPRLPRPRPRPDFRPRP
  shrunken log2 fold change: -0.0983

## RRIRYRPPRLPRPRPRPEVDPRP
  shrunken log2 fold change: -0.191

## RRIRKRPPRLPRPRPRPCAVPRP
  shrunken log2 fold change: 2.99

## RRIRHRPPRLPRPRPRPHSFPRP
  shrunken log2 fold change: -0.0282

## RRIRVRPPRLPRPRPRPHPEPRP
  shrunken log2 fold change: -0.155

## RRIRTRPPRLPRPRPRPHFFPRP
  shrunken log2 fold change: -0.161

## RRIRNRPPRLPRPRPRPQRRPRP
  shrunken log2 fold change: 0.135
